Data from paper PMC9728185.
Where “and” joins values, the source holds several entries; their conditions need not be identical. Equal values may be shown once.

Target: Glycerol dehydrogenase from Klebsiella pneumoniae (encoded by gldA, strain MGH78578) (Klebsiella pneumoniae strain MGH78578)
Assay: SEC; analytical Superdex-200 10/300 GL, 20 mM Tris-HCl, 0.1 mM TCEP, 200 mM NaCl, pH 8.0, 0.5 ml/min; 200 ul of purified KpGlyDH at 4.94 mg/ml; masses from a standard curve of reference proteins; octamer and hexadecamer in equilibrium

With “Glycerol dehydrogenase from Klebsiella pneumoniae (encoded by gldA, strain MGH78578) (enzyme)” the stoichiometry N was 8 and 16.
